Assay results taken from EP1882698A1 (Chemokine Therapeutics Corp., dated 2008).
Non-standard residues stand in square brackets, D forms with d. No end group written: not given here. Aun = NCCCCCCCCCCC(=O)O

T1: CXCR3 receptor (UniProt P49682 1-368, limits assumed)
T1 sequence (looked up): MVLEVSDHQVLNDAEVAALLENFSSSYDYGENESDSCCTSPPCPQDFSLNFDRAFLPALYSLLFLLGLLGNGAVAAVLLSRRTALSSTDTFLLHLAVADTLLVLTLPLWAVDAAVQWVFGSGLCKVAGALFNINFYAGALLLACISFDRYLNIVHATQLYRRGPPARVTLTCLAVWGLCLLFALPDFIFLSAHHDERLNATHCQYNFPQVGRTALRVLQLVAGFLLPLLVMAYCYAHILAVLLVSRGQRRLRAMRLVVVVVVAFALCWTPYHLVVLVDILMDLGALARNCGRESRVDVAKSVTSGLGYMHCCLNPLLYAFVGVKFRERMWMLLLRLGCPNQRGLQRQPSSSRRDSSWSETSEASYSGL


biological target: T1, CXCR3 receptor; experiment: cell-based or functional assay

| Binder | calcium mobilization activity of CXCR-3/300-19 cells, dosage 1.2 µM | calcium mobilization activity of CXCR-3/300-19 cells, dosage 3.7 µM | calcium mobilization activity of CXCR-3/300-19 cells, dosage 11.1 µM | calcium mobilization activity of CXCR-3/300-19 cells, dosage 33.3 µM | calcium mobilization activity of CXCR-3/300-19 cells, dosage 100 µM |
| --- | --- | --- | --- | --- | --- |
| Ac-VPLSRTVRCTCISISN[Aun]LKAVSKEMSKRSP (cysteine pairing not given here) [Acetylated-IP-10-(1-16)-[linker]-IP-10-(66-78)] | 12.6 | 12.7 | 14.1 | 20 | 52.9 |
| Ac-VPLSRTVRATFISISN[Aun]LKAVSKEMSKRSP [Acetylated-[Ala^9,Phe^11]-IP-10-(1-16)-[linker]-IP-10-(66-78)] | 15.2 | 13.8 | 15.4 | 20 | 3.1 |
| VPLSRTVRSTSISIS[Aun]ESKAIENLLKAVSK [[Ser^9,Ser^11,Glu^63]-IP-10-(1-15)-[linker]-IP-10-(58-71)] | 18.8 | 18.5 | 17.2 | 18.9 | 46.6 |

The next lines start with the values.

| calcium mobilization activity of CXCR-3/300-19 cells, dosage 1.2 µM | calcium mobilization activity of CXCR-3/300-19 cells, dosage 3.7 µM | calcium mobilization activity of CXCR-3/300-19 cells, dosage 11.1 µM | calcium mobilization activity of CXCR-3/300-19 cells, dosage 33.3 µM | calcium mobilization activity of CXCR-3/300-19 cells, dosage 100 µM | Binder |
| --- | --- | --- | --- | --- | --- |
| 17.4 | 15.4 | 12.5 | 13.3 | 3.4 | VPLSRTVRSTSISIS[Aun]ESKAIKNLLEAVSK [[Ser^9,Ser^11,Glu^67]-IP-10-(1-15)-[linker]-IP-10-(58-71)] |
| 16 | 14 | 14.4 | 18.6 | 55.1 | VPLSRTPRCTCISIS[Aun]ESKAIKNLLKAVSK (cysteine pairing not given here) [[Pro^7]-IP-10-(1-15)-[linker]-IP-10-(58-71)] |
